Numbered stars: 1 amine (or outer) side, 2 acyl side, 3 side chain; on linkers, the order of the positions; unused ones are H or OH. Bridge positions count the residues as written; N and C are the ends. Side chains are listed from the residue outwards. Ends that are not written are not given here. * marks the point of attachment. C20 diacid = O=C(O)CCCCCCCCCCCCCCCCCCC(=O)*; γGlu = O=C(O)[C@H](CCC(=O)[*:2])N[*:1]
T1: human calcitonin receptor (human, UniProt P30988 25-474)
T1 construct: whole, on cells; Cell membranes from the stably transfected cell line (Assay VII); also called hCTR; hCT
T1 sequence (looked up): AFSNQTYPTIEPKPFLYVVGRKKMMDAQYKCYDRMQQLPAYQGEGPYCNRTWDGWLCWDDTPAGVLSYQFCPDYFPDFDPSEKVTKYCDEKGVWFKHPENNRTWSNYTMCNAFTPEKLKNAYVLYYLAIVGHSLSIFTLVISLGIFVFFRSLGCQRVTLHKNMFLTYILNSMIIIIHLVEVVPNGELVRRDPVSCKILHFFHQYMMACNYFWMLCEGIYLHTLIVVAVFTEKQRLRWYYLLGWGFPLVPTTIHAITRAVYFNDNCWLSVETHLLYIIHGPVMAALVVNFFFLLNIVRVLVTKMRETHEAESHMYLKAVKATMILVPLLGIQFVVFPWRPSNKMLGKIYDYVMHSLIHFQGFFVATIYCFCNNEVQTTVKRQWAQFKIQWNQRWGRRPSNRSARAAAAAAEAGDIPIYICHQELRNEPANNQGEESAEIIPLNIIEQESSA

T2: rat calcitonin receptor (rat, UniProt P32214 25-516)
T2 construct: whole, on cells; In cell membranes prepared from transiently transfected BHK tk'ts 13 cells (Assay VIII); also called rCTR; rat calcitonin (a) receptor
T2 sequence (looked up): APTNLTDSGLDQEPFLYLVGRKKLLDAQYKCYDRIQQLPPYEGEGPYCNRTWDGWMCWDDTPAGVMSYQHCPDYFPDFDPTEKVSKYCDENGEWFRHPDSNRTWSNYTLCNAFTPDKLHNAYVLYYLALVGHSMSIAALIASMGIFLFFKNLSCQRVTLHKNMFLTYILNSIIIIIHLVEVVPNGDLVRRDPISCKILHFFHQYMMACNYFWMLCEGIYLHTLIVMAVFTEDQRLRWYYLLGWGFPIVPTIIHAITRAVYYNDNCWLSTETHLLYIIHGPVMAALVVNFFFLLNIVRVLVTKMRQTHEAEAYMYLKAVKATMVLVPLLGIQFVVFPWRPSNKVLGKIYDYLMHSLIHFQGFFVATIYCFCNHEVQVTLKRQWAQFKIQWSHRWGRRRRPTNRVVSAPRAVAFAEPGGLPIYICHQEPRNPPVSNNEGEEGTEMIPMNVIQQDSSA

T3: rat amylin receptor (rat calcitonin receptor + rat RAMP 3) (rat, UniProt P32214 25-516; Q9JJ73 23-147)
T3 construct: whole, on cells; Receptor complex in cell membranes prepared from transiently transfected BHK tk'ts 13 cells (Assay VI); also called rAmylin-R; rat amylin 3(a) receptor
T3 sequence (looked up) 1: T2 sequence (looked up)
T3 sequence (looked up) 2: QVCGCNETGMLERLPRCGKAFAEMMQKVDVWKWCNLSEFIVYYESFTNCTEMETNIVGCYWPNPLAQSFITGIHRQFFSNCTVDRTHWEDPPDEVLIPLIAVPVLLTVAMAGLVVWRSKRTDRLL

B1: N^ε1-[(4S)-4-carboxy-4-[[(4S)-4-carboxy-4-(19-carboxynonadecanoylamino)butanoyl]amino]butanoyl]-[Asp14,Arg17,Pro21,Pro27,Pro34,Glu35]-h-amylin (peptide)
peptide: K([γGlu-γGlu-C20 diacid])CNTATCATQRLADFLRHSSPNFGAIPSSTNVGPETY-NH2
modifications: disulfide 2-7; N-terminus assumed
SMILES: CC[C@H](C)[C@H](NC(=O)[C@H](C)NC(=O)CNC(=O)[C@H](Cc1ccccc1)NC(=O)[C@H](CC(N)=O)NC(=O)[C@@H]1CCCN1C(=O)[C@H](CO)NC(=O)[C@H](CO)NC(=O)[C@H](Cc1c[nH]cn1)NC(=O)[C@H](CCCNC(=N)N)NC(=O)[C@H](CC(C)C)NC(=O)[C@H](Cc1ccccc1)NC(=O)[C@H](CC(=O)O)NC(=O)[C@H](C)NC(=O)[C@H](CC(C)C)NC(=O)[C@H](CCCNC(=N)N)NC(=O)[C@H](CCC(N)=O)NC(=O)[C@@H](NC(=O)[C@H](C)NC(=O)[C@@H]1CSSC[C@H](NC(=O)[C@@H](N)CCCCNC(=O)CC[C@H](NC(=O)CC[C@H](NC(=O)CCCCCCCCCCCCCCCCCCC(=O)O)C(=O)O)C(=O)O)C(=O)N[C@@H](CC(N)=O)C(=O)N[C@@H]([C@@H](C)O)C(=O)N[C@@H](C)C(=O)N[C@@H]([C@@H](C)O)C(=O)N1)[C@@H](C)O)C(=O)N1CCC[C@H]1C(=O)N[C@@H](CO)C(=O)N[C@@H](CO)C(=O)N[C@H](C(=O)N[C@@H](CC(N)=O)C(=O)N[C@H](C(=O)NCC(=O)N1CCC[C@H]1C(=O)N[C@@H](CCC(=O)O)C(=O)N[C@H](C(=O)N[C@@H](Cc1ccc(O)cc1)C(N)=O)[C@@H](C)O)C(C)C)[C@@H](C)O
B2: N^ε1-[(4S)-4-carboxy-4-(19-carboxynonadecanoylamino)butanoyl]-[Asp14,Arg17,Pro21,Pro27,Pro34,Arg35]-h-amylin (peptide)
peptide: K([γGlu-C20 diacid])CNTATCATQRLADFLRHSSPNFGAIPSSTNVGPRTY-NH2
modifications: disulfide 2-7; N-terminus assumed
SMILES: CC[C@H](C)[C@H](NC(=O)[C@H](C)NC(=O)CNC(=O)[C@H](Cc1ccccc1)NC(=O)[C@H](CC(N)=O)NC(=O)[C@@H]1CCCN1C(=O)[C@H](CO)NC(=O)[C@H](CO)NC(=O)[C@H](Cc1c[nH]cn1)NC(=O)[C@H](CCCNC(=N)N)NC(=O)[C@H](CC(C)C)NC(=O)[C@H](Cc1ccccc1)NC(=O)[C@H](CC(=O)O)NC(=O)[C@H](C)NC(=O)[C@H](CC(C)C)NC(=O)[C@H](CCCNC(=N)N)NC(=O)[C@H](CCC(N)=O)NC(=O)[C@@H](NC(=O)[C@H](C)NC(=O)[C@@H]1CSSC[C@H](NC(=O)[C@@H](N)CCCCNC(=O)CC[C@H](NC(=O)CCCCCCCCCCCCCCCCCCC(=O)O)C(=O)O)C(=O)N[C@@H](CC(N)=O)C(=O)N[C@@H]([C@@H](C)O)C(=O)N[C@@H](C)C(=O)N[C@@H]([C@@H](C)O)C(=O)N1)[C@@H](C)O)C(=O)N1CCC[C@H]1C(=O)N[C@@H](CO)C(=O)N[C@@H](CO)C(=O)N[C@H](C(=O)N[C@@H](CC(N)=O)C(=O)N[C@H](C(=O)NCC(=O)N1CCC[C@H]1C(=O)N[C@@H](CCCNC(=N)N)C(=O)N[C@H](C(=O)N[C@@H](Cc1ccc(O)cc1)C(N)=O)[C@@H](C)O)C(C)C)[C@@H](C)O
B3: N^ε1-[(4S)-4-carboxy-4-(19-carboxynonadecanoylamino)butanoyl]-[Asp14,Arg17,Pro21,Pro27,Pro34,Glu35]-h-amylin (peptide)
peptide: K([γGlu-C20 diacid])CNTATCATQRLADFLRHSSPNFGAIPSSTNVGPETY-NH2
modifications: disulfide 2-7; N-terminus assumed
SMILES: CC[C@H](C)[C@H](NC(=O)[C@H](C)NC(=O)CNC(=O)[C@H](Cc1ccccc1)NC(=O)[C@H](CC(N)=O)NC(=O)[C@@H]1CCCN1C(=O)[C@H](CO)NC(=O)[C@H](CO)NC(=O)[C@H](Cc1c[nH]cn1)NC(=O)[C@H](CCCNC(=N)N)NC(=O)[C@H](CC(C)C)NC(=O)[C@H](Cc1ccccc1)NC(=O)[C@H](CC(=O)O)NC(=O)[C@H](C)NC(=O)[C@H](CC(C)C)NC(=O)[C@H](CCCNC(=N)N)NC(=O)[C@H](CCC(N)=O)NC(=O)[C@@H](NC(=O)[C@H](C)NC(=O)[C@@H]1CSSC[C@H](NC(=O)[C@@H](N)CCCCNC(=O)CC[C@H](NC(=O)CCCCCCCCCCCCCCCCCCC(=O)O)C(=O)O)C(=O)N[C@@H](CC(N)=O)C(=O)N[C@@H]([C@@H](C)O)C(=O)N[C@@H](C)C(=O)N[C@@H]([C@@H](C)O)C(=O)N1)[C@@H](C)O)C(=O)N1CCC[C@H]1C(=O)N[C@@H](CO)C(=O)N[C@@H](CO)C(=O)N[C@H](C(=O)N[C@@H](CC(N)=O)C(=O)N[C@H](C(=O)NCC(=O)N1CCC[C@H]1C(=O)N[C@@H](CCC(=O)O)C(=O)N[C@H](C(=O)N[C@@H](Cc1ccc(O)cc1)C(N)=O)[C@@H](C)O)C(C)C)[C@@H](C)O

molecular target: T1, human calcitonin receptor; test: ratio of binding IC50s: human calcitonin receptor (Assay VII) over human amylin receptor (Assay V)
Experimental: The resulting pellet was resuspended, homogenized and centrifuged (20.000 rpm, 15 min) in a buffer containing 20 mM Na-HEPES and 0.1 mM EDTA (pH 7.4, buffer 2). The resulting pellet was resuspended in buffer 2 and protein concentration was measured (BCA protein Assay, Pierce). The homogenate was kept cold during the whole procedure. The membranes were kept at −80° C. until use. The assay was performed in a 384 well Optiplate (PerkinElmer) in a total volume of 40 ul. Membranes were mixed with SPA beads. Final concentration of membranes 35 ng/μL final and SPA beads was 0.05 mg/well. Test-compounds were dissolved in DMSO and further diluted in assay buffer (50 mM Hepes, pH 7.4, 1 mM CaCl2, 5 mM MgCl₂, 0.1% OA and 0.02% Tween20). […] The final mixture was incubated with shaking at 400 rpm for 120 min at 25° C. prior to centrifugation (1500 rpm, 10 min). Samples were analyzed on TopCounter™ (Packard). The IC₅₀ was calculated using (one site binding competition analysis) GraphPad Prism5 as a measure of receptor affinity.
Membranes were prepared in the following way; the cells were rinsed with PBS and incubated with Versene for approximately 5 min before harvesting. The cells were flushed with PBS and the cell-suspension was centrifuged for 5 min at 1000 rpm. Cells were homogenized (Ultrathurrax) in a buffer containing 20 mM Na-HEPES and 10 mM EDTA (pH 7.4) and centrifuged at 20.000 rpm for 15 min. The resulting pellet was resuspended, homogenized and centrifuged (20.000 rpm, 15 min) in a buffer containing 20 mM Na-HEPES and 0.1 mM EDTA (pH 7.4, buffer 2). The resulting pellet was resuspended in buffer 2 and protein concentration was measured (BCA protein Assay, Pierce). The homogenate was kept cold during the whole procedure. The membranes were kept at −80° C. until use. Assay was performed in a 384 well Optiplate (PerkinElmer) in a total volume of 40 ul. Membranes were mixed with SPA beads.

Ratio hCT/hAmylin binding | Binder
49.8 | B1
280 | K([γGlu-γGlu-C20 diacid])CNTATCATQRLADFLRHSSPNFGAIPSSTNVGPRTY-NH2 (disulfide 2-7, also called compound 130)
151 | B2
16.7 | B3

molecular target: T2, rat calcitonin receptor; test: ratio of binding IC50s: rat calcitonin receptor (Assay VIII) over rat amylin receptor (Assay VI)

Ratio rCT/rAmylin binding | Binder
98.5 | B1
240 | K([γGlu-γGlu-C20 diacid])CNTATCATQRLADFLRHSSPNFGAIPSSTNVGPRTY-NH2 (disulfide 2-7, also called compound 130)
116 | B2
62 | B3

molecular target: T3, rat amylin receptor (rat calcitonin …); test: SPA competition binding, displacement of 125I-rat amylin from membranes of BHK tk'ts 13 cells with rat calcitonin receptor + rat RAMP 3 (Assay VI)
Experimental: The binding assay was performed using scintillation proximity assay (SPA) beads (RPNQ0001) from PerkinElmer and cell membranes from the Amylin 3(a)/CRE-luc cells (as described in Assay (II)) were used. Membranes were prepared in the following way; the cells were rinsed with PBS and incubated with Versene for approximately 5 min before harvesting. The cells were flushed with PBS and the cell-suspension was centrifuged for 5 min at 1000 rpm. Cells were homogenized (ultrathurrax) in a buffer containing 20 mM Na-HEPES and 10 mM EDTA (pH 7.4) and centrifuged at 20.000 rpm for 15 min. The resulting pellet was resuspended, homogenized and centrifuged (20.000 rpm, 15 min) in a buffer containing 20 mM Na-HEPES and 0.1 mM EDTA (pH 7.4, buffer 2). The resulting pellet was resuspended in buffer 2 and protein concentration was measured (BCA protein Assay, Pierce). The homogenate was kept cold during the whole procedure. The membranes were kept at −80° C. until use. The assay was performed in a 384 well Optiplate (PerkinElmer) in a total volume of 40 ul. Membranes were mixed with SPA beads. Final concentration of membranes 35 ng/μL final and SPA beads was 0.05 mg/well. Test-compounds were dissolved in DMSO and further diluted in assay buffer (50 mM Hepes, pH 7.4, 1 mM CaCl2, 5 mM MgCl₂, 0.1% OA and 0.02% Tween20). […] The final mixture was incubated with shaking at 400 rpm for 120 min at 25° C. prior to centrifugation (1500 rpm, 10 min). Samples were analyzed on TopCounter™ (Packard). The IC₅₀ was calculated using (one site binding competition analysis) GraphPad Prism5 as a measure of receptor affinity.
Cells were grown in DMEM with 10% FBS and 1% Pen/Strep. Approximately 48 hours after transfection, the cells were harvested and membranes were prepared.

IC50 | Binder
0.324 nM | B1
0.93 nM | K([γGlu-γGlu-C20 diacid])CNTATCATQRLADFLRHSSPNFGAIPSSTNVGPRTY-NH2 (disulfide 2-7, also called compound 130)
0.504 nM | B2
0.3 nM | B3

molecular target: T2, rat calcitonin receptor; test: SPA competition binding, displacement of 125I-Calcitonin from membranes of BHK tk'ts 13 cells with rat calcitonin receptor (Assay VIII)

IC50 | Binder
31.9 nM | B1
223 nM | K([γGlu-γGlu-C20 diacid])CNTATCATQRLADFLRHSSPNFGAIPSSTNVGPRTY-NH2 (disulfide 2-7, also called compound 130)
58.5 nM | B2
18.6 nM | B3

Source: US20140087995A1 (published 2014)
